Laboratory results published in patent US20020164707A1, “Calcitonin gene related peptide receptor” (Human Genome Sciences, Inc., priority 1994, published 2002).
No end group written: not given here.

Columns and labels:
[1] = molecular target: T1, CGRP receptor (Homo sapiens, UniProt O60894+Q16602); test: [125I]CGRP binding to membranes from 293 cells (clone 22) stably transformed with CGRP receptor cDNA; conditions: for rank order of potency in competition against [125I]CGRP binding: two to three independent experiments in duplicate
T1 construct: expressed in transfected cells; host or cells: Human Kidney 293 cells (transient)
T1 sequence (Q16602 23-461): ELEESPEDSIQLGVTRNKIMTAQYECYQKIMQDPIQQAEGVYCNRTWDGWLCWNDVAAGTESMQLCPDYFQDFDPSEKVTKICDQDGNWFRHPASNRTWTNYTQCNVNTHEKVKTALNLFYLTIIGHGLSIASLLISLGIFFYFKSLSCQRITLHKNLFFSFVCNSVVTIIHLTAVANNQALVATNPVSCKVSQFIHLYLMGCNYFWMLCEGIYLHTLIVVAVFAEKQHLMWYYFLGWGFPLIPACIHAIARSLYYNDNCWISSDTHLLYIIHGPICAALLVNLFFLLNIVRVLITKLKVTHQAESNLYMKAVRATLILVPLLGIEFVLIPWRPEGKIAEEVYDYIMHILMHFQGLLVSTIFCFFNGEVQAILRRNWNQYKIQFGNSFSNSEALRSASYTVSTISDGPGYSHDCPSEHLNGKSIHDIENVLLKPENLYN
T1 sequence (O60894 27-148): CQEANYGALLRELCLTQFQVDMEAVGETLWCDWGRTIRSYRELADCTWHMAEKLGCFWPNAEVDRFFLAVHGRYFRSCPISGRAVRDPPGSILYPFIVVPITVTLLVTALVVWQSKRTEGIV
Method: FIG. 8. Saturation binding. […] Equilibrium binding was measured at 25° C. for 60 min. […] Data are from one experiment representative of three independent experiments done in duplicate. (B) Scatchard plot of [^125I] CGRP binding.
FIG. 9. Competition binding profiles. Competition curves for representative CGRP analogs against [^125I]CGRP binding to membranes prepared from 293 cells (clone 22 cells) stably transformed with the CGRP receptor cDNA. Each curve is representative of two to three independent experiments, each carried out in duplicate.

[2] = molecular target: human CGRP receptor polypeptide (recombinant, expressed in 293 cells from construct pCDNHCGRPr) (human) (UniProt Q16602); test: cell-based or functional assay
Sequence of human CGRP receptor polypeptide (recombinant, expressed in 293 cells from construct pCDNHCGRPr) (human) (Q16602 22-461): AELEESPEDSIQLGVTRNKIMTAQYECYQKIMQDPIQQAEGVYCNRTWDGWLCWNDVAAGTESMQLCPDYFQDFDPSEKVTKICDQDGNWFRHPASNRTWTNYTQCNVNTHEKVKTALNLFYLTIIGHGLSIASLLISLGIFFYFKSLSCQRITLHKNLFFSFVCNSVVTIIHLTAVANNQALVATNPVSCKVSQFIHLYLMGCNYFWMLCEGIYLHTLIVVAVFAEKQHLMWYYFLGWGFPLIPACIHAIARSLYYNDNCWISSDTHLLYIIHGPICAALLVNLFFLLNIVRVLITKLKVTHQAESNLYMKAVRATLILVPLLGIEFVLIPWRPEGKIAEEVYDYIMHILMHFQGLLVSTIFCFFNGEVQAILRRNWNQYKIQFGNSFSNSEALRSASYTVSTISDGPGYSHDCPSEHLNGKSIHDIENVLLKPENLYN

Compound | rank order of potency in competition against [125I]CGRP binding [1] | further results
human calcitonin (hCT): human calcitonin | >>>> | 
salmon calcitonin (8-32): salmon calcitonin fragment (8-32) (VLGKLSQELHKLQTYPRTNTGSGTP; ends and bridges not checked) | >>>> | 
CC(C)C[C@H](NC(=O)CNC(=O)[C@H](C)NC(=O)[C@H](CC(C)C)NC(=O)[C@H](CCCNC(=N)N)NC(=O)[C@H](Cc1cnc(I)[nH]1)NC(=O)[C@@H](NC(=O)[C@@H](NC(=O)[C@@H]1CSSC[C@H](NC(=O)[C@H](C)N)C(=O)N[C@@H](CC(=O)O)C(=O)N[C@@H]([C@@H](C)O)C(=O)N[C@@H](C)C(=O)N[C@@H]([C@@H](C)O)C(=O)N1)C(C)C)[C@@H](C)O)C(=O)N[C@@H](CC(C)C)C(=O)N[C@@H](CO)C(=O)N[C@@H](CCCNC(=N)N)C(=O)N[C@@H](CO)C(=O)NCC(=O)NCC(=O)N[C@H](C(=O)N[C@H](C(=O)N[C@@H](CCCCN)C(=O)N[C@@H](CC(N)=O)C(=O)N[C@@H](CC(N)=O)C(=O)N[C@@H](Cc1ccccc1)C(=O)N[C@H](C(=O)N1CCC[C@H]1C(=O)N[C@H](C(=O)N[C@@H](CC(N)=O)C(=O)N[C@H](C(=O)NCC(=O)N[C@@H](CO)C(=O)N[C@@H](CCCCN)C(=O)N[C@@H](C)C(=O)N[C@@H](Cc1ccccc1)C(N)=O)C(C)C)[C@@H](C)O)C(C)C)C(C)C)C(C)C [[^125I] CGRP] |  | Bmax (Scatchard plot, saturation binding) ([1]; equilibrium binding at 25° C. for 60 min): 89 fmol/mg protein
human amylin: islet amyloid polypeptide (IAPP or amylin), human (KCNTATCATQRLANFLVHSSNNFGAILSSTNVGSNTY) | >>>> | 
human CGRP (8-37) (from UniProt P06881 90-119) (peptide) |  | pA2 against CGRP-mediated cAMP accumulation in stably transformed 293 cells, 100 nM CGRP (8-37) [2]: 7.8 pA2
porcine vasoactive intestinal peptide (VIP): porcine vasoactive intestinal peptide | >>>> | 
